As usually defined, the Kd is the constant that tells how readily two partners part at equilibrium.

Numbering of substitutions follows the chain as printed.

The results in this text go back to US20130089872A1 (LIVTECH, published 2013).

Experiment [1] concerns the target T1, human TROP-1/EpCAM protein (human, UniProt P16422 24-314).
T1 construct: whole, on cells; vector adds a C-terminal myc/His tag; also called human EpCAM/TROP-1; hEpCAM
T1 sequence (looked up): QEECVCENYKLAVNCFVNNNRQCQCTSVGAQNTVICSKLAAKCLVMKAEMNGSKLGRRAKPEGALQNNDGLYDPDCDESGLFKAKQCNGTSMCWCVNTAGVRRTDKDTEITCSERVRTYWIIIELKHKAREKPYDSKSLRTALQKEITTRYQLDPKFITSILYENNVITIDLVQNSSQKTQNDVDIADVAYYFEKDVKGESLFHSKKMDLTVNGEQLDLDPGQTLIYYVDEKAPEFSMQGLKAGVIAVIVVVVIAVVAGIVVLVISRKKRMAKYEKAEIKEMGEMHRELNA
The experiment is described as follows: FACS on CHO-K1 cells transiently expressing human EpCAM/TROP-1. The text has this:
(§1) Specifically, each of an expression vector (mouse TROP-2-pcDNA3.1(+), furnished by the Institute of Molecular and Cellular Biosciences, the University of Tokyo) comprising the full-length cDNA of a mouse TROP-2 gene (GenBank accession No. NM_{—}020047, Y08830), and an expression vector (pcDNA3.1-hEpCAM-myc/His) comprising the full-length cDNA of a human TROP-1/EpCAM gene (GenBank accession No. NM_{—}002354), was transiently introduced into CHO-K1 cells, using Lipofectamine2000 reagent (Invitrogen). Thereafter, 24 to 48 hours later, the cells were removed from a culture dish by treating them with trypsin, and a cell suspension was then prepared. The thus prepared cell suspension was successively reacted with the produced anti-hTROP-2 monoclonal antibody (0.1 μg) and with PE-labeled anti-mouse IgG, and it was then analyzed by FACSCalibur.

Experiment [2] addresses T2, recombinant protein of the extracellular region of hTROP-2 (human, UniProt P09758 27-263).
T2 construct: made with baculovirus, purified on Ni Sepharose; also called purified recombinant hTROP-2 protein; hTROP-2 EC; not shown: C-terminal myc/His tag from the pcDNA4/myc-His A vector
T2 sequence: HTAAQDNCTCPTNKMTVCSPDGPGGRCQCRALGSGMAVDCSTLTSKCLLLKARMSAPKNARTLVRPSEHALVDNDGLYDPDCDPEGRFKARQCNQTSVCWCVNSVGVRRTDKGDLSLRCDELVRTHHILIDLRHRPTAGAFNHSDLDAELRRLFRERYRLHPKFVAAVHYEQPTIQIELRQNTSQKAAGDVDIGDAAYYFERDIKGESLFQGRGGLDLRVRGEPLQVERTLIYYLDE
Kind of experiment: equilibrium competition ELISA (Djavadi-Ohaniance method), recombinant hTROP-2. As for the experimental part:
The antigen binding affinity (Kd value) of the generated anti-hTROP-2 monoclonal antibody was calculated by a method using ELISA (Djavadi-Ohaniance L. et al (1996), In Antibody Engineering, Chapter 4, pp. 77-97. IRL Press, Oxford).
Specifically, the purified recombinant hTROP-2 protein (0.1 μg/mL) was added to a 96-well culture plate (Corning) so that the antigen was solid-phased (at room temperature for 1 hour, or at 4° C. overnight). Subsequently, the resultant was washed with PBS three times, and 2% skim milk (PBS solution) was then added thereto to block it (at room temperature for 1 hour). The resultant was washed with PBS twice. […] The reaction product was washed with PBS three times, and it was then reacted with HRP-labeled anti-mouse IgG (final concentration: 1 μg/mL) (GE Healthcare Biosciences) diluted with a blocking solution (at room temperature for 1 hour). Subsequently, the reaction product was washed with a 0.1% Tween20-PBS solution three times, and a TMB (3,3′,5,5′-tetramethylbenzidine: SIGMA) substrate solution was then added to the resultant to carry out a color reaction. Then, 1 M sulfuric acid was added to the reaction product to terminate the reaction. Using Microplate reader Model 550 (BIO RAD), absorbance was measured.
In general terms: ELISA stands for enzyme-linked immunosorbent assay.

Experiment [3] deals with T3, hmTROP-2-C chimeric protein (human; mouse, UniProt Q8BGV3 140-317).
T3 construct: range 140-C-terminus; constitutively expressed on HEK293 cells; signal peptide 1-26 of hTROP-2 left out; also called human/mouse chimeric TROP-2-C; not shown: C-terminal myc/His tag from the vector
T3 sequence: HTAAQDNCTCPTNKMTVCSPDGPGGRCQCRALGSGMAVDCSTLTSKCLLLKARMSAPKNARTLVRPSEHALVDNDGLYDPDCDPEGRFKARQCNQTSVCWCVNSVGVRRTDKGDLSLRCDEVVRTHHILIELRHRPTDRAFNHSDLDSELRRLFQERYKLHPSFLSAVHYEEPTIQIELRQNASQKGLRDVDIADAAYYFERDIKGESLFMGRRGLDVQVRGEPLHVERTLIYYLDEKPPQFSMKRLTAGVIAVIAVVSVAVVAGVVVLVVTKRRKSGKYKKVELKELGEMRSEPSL
Kind of experiment: FACS on HEK293 cells constantly expressing hmTROP-2-C.

In experiment [4] the target is T4, mouse TROP-2 protein (mouse, UniProt Q8BGV3 25-317).
T4 construct: whole, on cells
T4 sequence (looked up): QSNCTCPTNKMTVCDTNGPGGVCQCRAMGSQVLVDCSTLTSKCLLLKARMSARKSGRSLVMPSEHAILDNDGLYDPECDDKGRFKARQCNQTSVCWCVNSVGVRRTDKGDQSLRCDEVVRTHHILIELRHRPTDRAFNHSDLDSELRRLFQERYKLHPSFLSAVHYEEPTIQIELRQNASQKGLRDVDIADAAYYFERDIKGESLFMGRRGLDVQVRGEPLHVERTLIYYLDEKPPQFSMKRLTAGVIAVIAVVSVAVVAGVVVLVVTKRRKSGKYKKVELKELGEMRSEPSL
Kind of experiment: FACS on CHO-K1 cells transiently expressing mouse TROP-2.
Excerpt: as §1

The target of experiment [5] is T5, human TROP-2 (hTROP-2) protein (human, UniProt P09758 27-323).
T5 construct: also called Tacstd2; GA733-1
T5 sequence: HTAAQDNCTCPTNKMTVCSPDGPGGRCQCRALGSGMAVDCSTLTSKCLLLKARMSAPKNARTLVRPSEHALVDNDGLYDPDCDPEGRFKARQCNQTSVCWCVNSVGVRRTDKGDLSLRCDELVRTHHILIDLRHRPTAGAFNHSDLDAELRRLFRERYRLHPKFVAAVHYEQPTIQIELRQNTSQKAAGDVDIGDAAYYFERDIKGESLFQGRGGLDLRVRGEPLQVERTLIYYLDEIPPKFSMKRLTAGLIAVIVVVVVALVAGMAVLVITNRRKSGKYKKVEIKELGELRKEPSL
Kind of experiment: FACS on PK-59 cells (endogenous hTROP-2), 0.1 ug antibody. As for the experimental part:
(§2) Cancer cells were removed from a culture dish by a trypsin treatment, and a cell suspension was then prepared (cell density: 2×10⁶ cells/mL). An anti-hTROP-2 monoclonal antibody (0.1 μg) was added to 100 μL of the cell suspension, and they were then reacted at 4° C. for 20 minutes. The reaction solution was washed with PBS, and it was then reacted with PE-labeled anti-mouse IgG (BD Biosciences Pharmingen) (0.1 μg) (at 4° C. for 30 minutes). Thereafter, the resultant was analyzed by FACSCalibur (Becton, Dickinson and Company).

The target in experiment [6] is Table 9 peptide No. 14. Kind of experiment: PEPSCAN/CLIPS peptide ELISA, antibody 1 ug/mL.
Experiment [7] has as its target T6, hmTROP-2-A chimeric protein (human; mouse, UniProt Q8BGV3 64-317).
T6 construct: range 64-C-terminus; transiently expressed on HEK293 cells; also called human/mouse TROP-2-A; not shown: C-terminal myc/His tag from the vector
T6 sequence: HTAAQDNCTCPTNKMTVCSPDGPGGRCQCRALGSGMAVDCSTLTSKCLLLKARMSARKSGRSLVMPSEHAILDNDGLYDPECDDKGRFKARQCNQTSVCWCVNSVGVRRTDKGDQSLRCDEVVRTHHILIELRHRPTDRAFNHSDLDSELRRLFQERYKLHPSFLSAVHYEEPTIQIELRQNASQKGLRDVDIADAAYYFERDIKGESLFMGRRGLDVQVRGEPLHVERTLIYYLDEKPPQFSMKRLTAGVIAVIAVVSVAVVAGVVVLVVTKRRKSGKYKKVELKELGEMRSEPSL
The experiment is described as follows: FACS on HEK293 cells transiently expressing hmTROP-2-A.

Experiment [8] deals with T5, human TROP-2 (hTROP-2) protein. The experiment is described as follows: FACS on BxPC-3 cells (endogenous hTROP-2), 0.1 ug antibody. The method, then:
as §2

For experiment [9], the target named is T7, Table 9 peptide No. 26.
T7 construct: CLIPS format (inferred); native Cys replaced by Ala as printed
T7 peptide: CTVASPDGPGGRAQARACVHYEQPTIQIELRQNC
Kind of experiment: PEPSCAN/CLIPS peptide ELISA, antibody 1 ug/mL. As for the experimental part: 5034 types of the synthesized peptides were covalently bound to PEPSCAN cards (455 peptides/card), and the binding of the synthesized peptides to antibodies was then analyzed by the ELISA method. […] After washing, the resultant was allowed to react with a 1000-fold diluted peroxidase-secondary antibody complex at 25° C. for 1 hour. After washing, a substrate solution (a solution containing 2,2′-azino-di-3-ethylbenzthiazoline sulfonate (ABTS) and 2 μL of 3% hydrogen peroxide solution) was added to the reaction solution, followed by a chromogenic reaction for 1 hour. The binding activity of the antibodies was quantified by photographing with a CCD camera and then performing an image analysis.

Experiment [10] has as its target Table 7 peptide No. 16. Kind of experiment: PEPSCAN/CLIPS peptide ELISA, antibody 1 ug/mL.
Experiment [11] has as its target Table 7 peptide No. 19. Kind of experiment: PEPSCAN/CLIPS peptide ELISA, antibody 1 ug/mL.

B1: anti-hTROP-2 monoclonal antibody clone T6-16 (antibody, V domains shown)
VH: EVQLQQSGPELVKPGASVKISCKASGYTFTDYNMHWVKQSHGKNLEWIGYIYPYNGGTGYNQRFKSRATMTVDKSSSTAYMELRSLTSDDSAVYYCAREDYGSSPSYAMDYWGQGTSVIVSS
VL: DVVMTQTPLSLPVSLGDQASISCRSSQSLVHGNGNTYLHWYLQKPGQSPKLLIYKVSNRFSGVPDRFSGSGSGTDFTLKISRVEAEDLGVYFCSQTTHVPTFGSGTKLEIK
notes: mouse IgG2a purified from hybridoma ascites; also called 16-16; hybridoma FERM BP-11346
Take B1: the binding result is reported as “no binding (tested: 0.1 ug)” in [1], “no binding” in experiment [3] and “no binding (tested: 0.1 ug)” in [4]. Moreover, the Kd in [2] came out at 4.3 pM.

B2: anti-hTROP-2 monoclonal antibody clone K5-116-2-1 (antibody, V domains shown)
VH: QVQLQQPGAELVRPGASVKLSCKASGYTFTSYWITWVKQRPGQGLEWIGNIYPSDSYTNYNQKFRDKATLTVDKSSSTAYMQLSSPTSEDSAVYYCSALFDYWGQGTTLTVSS
VL: DILLTQSPAILSVSPGERVSFSCRASQSIGTSIHWYQQRTNGSPRLLIKYASESISGIPSRFSGSGSGTDFILSINSVESEDIADYYCQQSNSWPFTFGSGTKLEIK
notes: mouse IgG; also called hybridoma FERM BP-11253
As to B2, the “mean fluorescence intensity relative to secondary antibody only” value in experiment [5] stood at 122 times; in experiment [8], 121 times. The binding (PEPSCAN ELISA signal) in experiment [6] stood at 1440; in experiment [9], 1220. In addition, the binding result is “no binding (tested: 0.1 ug)” in experiment [1], “binds” in experiment [3], “binds” in experiment [7] and “no binding (tested: 0.1 ug)” in experiment [4]. Besides, the Kd in experiment [2] was found to be 26.9 pM.

B3: anti-hTROP-2 monoclonal antibody clone K5-107 (antibody, V domains shown)
VH: QVQLQQPGSELVRPGASVKLSCKASGYTFTSYWMHWVKQRHGQGLEWIGNIYPGGGYTNYDEKFKSKGTLTVDTSSSTAYMHLSSLTSEDSAVYYCTRSSVFDYWGQGTTLTVSS
VL: B2 VL with S28N, Y36F, I72T
notes: mouse IgG1 purified from hybridoma ascites; also called hybridoma FERM BP-11252
For B3, the binding result in experiment [1] and in experiment [4] was “no binding (tested: 0.1 ug)” throughout.

B4: anti-hTROP-2 monoclonal antibody clone K5-70 (antibody, V domains shown)
VH: QVQLQQPGAELVRPGASVKLSCKASGYTFTIYWINWVKQRPGQGLEWIGNIYPSDSYTNYNQKFKDKATLTVDKSSSTAYMQLSSPTSEDSAVYYCTRTSMADYWGQGTTLTVSS
VL: B2 VL with I72T
notes: mouse IgG2a purified from hybridoma ascites; also called K-70; hybridoma FERM BP-11251
As for B4, the binding (PEPSCAN ELISA signal) was 538 in [10] and 519 in experiment [11]. In addition, the binding result in experiment [1] is recorded as “no binding (tested: 0.1 ug)”; in experiment [3], “binds”; in [7], “binds”; in experiment [4] it was “no binding (tested: 0.1 ug)”. For the same molecule, the Kd in [2] worked out at 6.8 pM.
